13 sequences from the Immune Epitope Database (IEDB) can be followed below.

The target of assay [1] is HLA-A*01:01. The experiment in a line: IEDB peptide-MHC binding, purified MHC/competitive/fluorescence; ≥ and ≤ were set here for values at or beyond the usual limits of such assays.
Assay [2] concerns the target HLA-A*02:01. Described as above.
The target of assay [3] is HLA-A*03:01. The assay is described as above.
Assay [4] deals with HLA-A*11:01. The assay is described as above.
The target in assay [5] is HLA-B*15:01. The description is as above.
For a further assay, the target named is HLA-C*15:02. Description: IEDB peptide-MHC binding, purified MHC/direct/fluorescence; filed as Kd, often an IC50 or EC50 that approximates it; ≥ and ≤ were set here for values at or beyond the usual limits of such assays. Conditions: source organism: Cytophaga hutchinsonii ATCC 33406.
The target in assay [6] is HLA-A*02:01. The experiment in a line: IEDB peptide-MHC binding, purified MHC/competitive/fluorescence; filed as Kd, often an IC50 or EC50 that approximates it; ≥ and ≤ were set here for values at or beyond the usual limits of such assays.
The target of a further assay is HLA-B*07:02. Description: IEDB peptide-MHC binding, purified MHC/competitive/fluorescence; ≥ and ≤ were set here for values at or beyond the usual limits of such assays.
The next assay addresses HLA-B*27:05. The experiment in a line: IEDB peptide-MHC binding, purified MHC/competitive/fluorescence; filed as Kd, often an IC50 or EC50 that approximates it; ≥ and ≤ were set here for values at or beyond the usual limits of such assays.
The target in a further assay is HLA-B*39:01. The assay is described as above.
The target in a further assay is HLA-B*40:01. The assay is described as above. Conditions: source organism: Salmonella enterica subsp. enterica serovar Typhi.
Assay [7] deals with HLA-B*15:01. The assay is described as above.
In assay [8] the target is HLA-A*03:01. Description: IEDB peptide-MHC binding, purified MHC/competitive/radioactivity; filed as Kd, often an IC50 or EC50 that approximates it; ≥ and ≤ were set here for values at or beyond the usual limits of such assays. The conditions noted are these: source organism: Vaccinia virus WR.
The target in assay [9] is HLA-A*11:01. The assay is described as above. The conditions noted are these: source organism: Vaccinia virus WR.
A further assay concerns the target HLA-A*31:01. The description is as above. The conditions noted are these: source organism: Vaccinia virus WR.
A further assay has as its target HLA-A*33:01. Described as above. Conditions: source organism: Vaccinia virus WR.
Another assay addresses HLA-A*68:01. The assay is described as above. Conditions: source organism: Vaccinia virus WR.
Assay [10] concerns the target HLA-A*01:01. Description: IEDB peptide-MHC binding, purified MHC/competitive/fluorescence; filed as Kd, often an IC50 or EC50 that approximates it; ≥ and ≤ were set here for values at or beyond the usual limits of such assays. The conditions noted are these: source organism: Human immunodeficiency virus 1.
Assay [11] concerns the target HLA-A*02:03. The description is as above. Conditions: source organism: Human immunodeficiency virus 1.
Another assay concerns the target HLA-A*02:06. Described as above. The conditions noted are these: source organism: Human immunodeficiency virus 1.
In assay [12] the target is HLA-A*11:01. The assay is described as above. Conditions: source organism: Human immunodeficiency virus 1.
In another assay the target is HLA-A*26:02. The assay is described as above. The conditions noted are these: source organism: Human immunodeficiency virus 1.
The next assay deals with HLA-A*30:01. Described as above. Conditions: source organism: Human immunodeficiency virus 1.
A further assay addresses HLA-B*15:17. The description is as above.
A further assay addresses HLA-B*18:01. Described as above.
The next assay deals with HLA-A*24:02. Description: IEDB peptide-MHC binding, purified MHC/competitive/fluorescence; ≥ and ≤ were set here for values at or beyond the usual limits of such assays. The conditions noted are these: source organism: Zaire ebolavirus.
The target of assay [13] is HLA-A*02:03. Description: IEDB peptide-MHC binding, purified MHC/direct/fluorescence; filed as Kd, often an IC50 or EC50 that approximates it; ≥ and ≤ were set here for values at or beyond the usual limits of such assays. Conditions: source organism: Limestone Canyon virus.
Another assay deals with HLA-A*02:11. Described as above. The conditions noted are these: source organism: Limestone Canyon virus.
A further assay concerns the target HLA-A*02:12. Described as above. Conditions: source organism: Limestone Canyon virus.
For a further assay, the target named is HLA-A*02:16. The assay is described as above. Conditions: source organism: Limestone Canyon virus.
A further assay addresses HLA-A*02:19. The description is as above. The conditions noted are these: source organism: Limestone Canyon virus.
Assay [14] deals with HLA-A*03:01. Described as above. Conditions: source organism: Limestone Canyon virus.
The target in another assay is HLA-A*24:03. Described as above. The conditions noted are these: source organism: Limestone Canyon virus.
For the next assay, the target named is HLA-A*68:02. The assay is described as above. The conditions noted are these: source organism: Limestone Canyon virus.
The target of a further assay is HLA-C*07:02. Described as above. The conditions noted are these: source organism: Orthohantavirus sinnombreense.
In the next assay the target is HLA-A*26:01. Description: IEDB peptide-MHC binding, purified MHC/competitive/fluorescence; filed as Kd, often an IC50 or EC50 that approximates it; ≥ and ≤ were set here for values at or beyond the usual limits of such assays. Conditions: source organism: Orthohantavirus sinnombreense.
Another assay deals with HLA-B*46:01. Described as above. Conditions: source organism: Orthohantavirus sinnombreense.
Another assay addresses HLA-B*51:01. The description is as above. The conditions noted are these: source organism: Orthohantavirus sinnombreense.
The next assay concerns the target HLA-B*57:01. The description is as above. The conditions noted are these: source organism: Orthohantavirus sinnombreense.
The mark [15] stands for this setting: source organism: Vaccinia virus.
Where [16] appears, read: source organism: Zaire ebolavirus.
The mark [17] stands for this setting: source organism: Salmonella enterica subsp. enterica serovar Typhi.
Setting [18] is: source organism: Vaccinia virus Copenhagen.
Where [19] appears, read: source organism: Human immunodeficiency virus 1.
Setting [20] is: source organism: Orthohantavirus sinnombreense.

A value given as a limit tells only on which side of the number the result lay.

Usually IC50 stands for the concentration that inhibits the measured activity by half. Higher therefore signals weaker potency in that assay. AVDRGCLRI: the IC50 is no less than 183 µM with HLA-A*01:01 [1] (setting [15]), 3.51 µM with HLA-A*02:01 [2] (setting [15]), 16.1 µM with HLA-A*03:01 [3] (setting [15]) and 11.8 µM with HLA-A*11:01 [4] (setting [15]).

The sequence DSDNTQSEH displayed an IC50 with HLA-A*01:01 [1] (setting [16]) of no less than 84.2 µM.

In the case of FLESGAVKY, the IC50 with HLA-A*01:01 [1] (setting [16]) came out at 3.4 µM; with HLA-A*02:01 [2] (setting [16]), 26.3 µM; in the assay with HLA-B*15:01 [5] (setting [16]), 19.5 µM.

By Kd is commonly meant the free concentration of one partner at which half of the binding sites on the other are occupied at equilibrium, for simple one-to-one binding. For GLADAFILL, the Kd is no less than 20 µM with HLA-C*15:02 and 0.0006 µM with HLA-A*02:01 [6] (source organism: Cytophaga hutchinsonii ATCC 33406).

In the assay with HLA-B*07:02 (source organism: Sudan ebolavirus), IPSSSPTTA registered an IC50 of 22.1 µM.

On to KQFCLSILL, for which the Kd with HLA-A*02:01 [6] (setting [17]) was determined as 0.0029 µM; with HLA-B*27:05 (setting [17]), 0.208 µM; with HLA-B*39:01 (setting [17]) it was 0.0646 µM; with HLA-B*40:01, 0.0905 µM.

For the sequence LSGVNNLEH, the figures for the IC50 with HLA-A*01:01 [1] (setting [16]), in the assay with HLA-A*03:01 [3] (setting [16]) and with HLA-A*11:01 [4] (setting [16]) were no less than 167 µM, 43.5 µM and 5.06 µM, respectively.

On to MEDNFSIYI, for which the figures for the Kd in the assay with HLA-B*15:01 [7] (setting [17]) and with HLA-B*40:01 were no less than 20 µM and 0.0034 µM, respectively.

MLEGETKLY: the IC50 with HLA-A*01:01 [1] (setting [18]) was 8.1 µM; in the assay with HLA-A*02:01 [2] (setting [18]), no less than 166 µM; in the assay with HLA-B*15:01 [5] (setting [18]) it was 61.7 µM. The Kd with HLA-A*03:01 [8] was 0.22 µM; with HLA-A*11:01 [9] it was 7.06 µM; in the assay with HLA-A*31:01 it was no less than 61.4 µM; with HLA-A*33:01 it was no less than 57.1 µM; in the assay with HLA-A*68:01, 17 µM.

For RSLYNTVAVLY, the Kd with HLA-A*01:01 [10] was no less than 20 µM; with HLA-A*02:03 [11] it was 1.36 µM; with HLA-A*02:06, 0.597 µM; in the assay with HLA-A*11:01 [12], 1.52 µM; in the assay with HLA-A*26:02, 2.36 µM; with HLA-A*30:01, no less than 20 µM. The Kd in the assay with HLA-B*15:01 [7] (setting [19]) was 1.32 µM; with HLA-B*15:17 (setting [19]), 0.0118 µM; in the assay with HLA-B*18:01 (setting [19]), 0.25 µM.

On to RTFSIPLGV, for which the IC50 with HLA-A*02:01 [2] (setting [16]) is 0.321 µM; with HLA-A*03:01 [3] (setting [16]) it was 3.46 µM; with HLA-A*11:01 [4] (setting [16]), 1.62 µM; with HLA-A*24:02, 33 µM; with HLA-B*07:02 (setting [16]), no less than 167 µM; with HLA-B*15:01 [5] (setting [16]), no less than 221 µM.

As for YRTLGVFRY, the Kd with HLA-A*02:03 [13], with HLA-A*02:11, with HLA-A*02:12, with HLA-A*02:16, in the assay with HLA-A*02:19 and in the assay with HLA-A*03:01 [14] was no less than 20 µM throughout. In addition, the Kd in the assay with HLA-A*24:03 is no less than 20 µM; with HLA-A*68:02, no less than 20 µM; with HLA-C*07:02, 0.048 µM; with HLA-A*02:01 [6] (setting [20]) it was no less than 20 µM; in the assay with HLA-A*26:01, no less than 20 µM; with HLA-B*15:01 [7] (setting [20]), no less than 20 µM. The Kd is no less than 20 µM in the assay with HLA-B*15:17 (setting [20]); no less than 20 µM in the assay with HLA-B*18:01 (setting [20]); 0.144 µM in the assay with HLA-B*27:05 (setting [20]); no less than 20 µM with HLA-B*39:01 (setting [20]); no less than 20 µM with HLA-B*46:01; no less than 20 µM with HLA-B*51:01. Further, in the assay with HLA-B*57:01, the Kd is no less than 20 µM.

Consider YTSGKRSNT, for which the IC50 in the assay with HLA-A*02:01 [2] (setting [16]) was no less than 354 µM; with HLA-B*07:02 (setting [16]), 5.9 µM.
